B1: Mutation 1-42 (antibody, V domains shown)
VH: EVQLQQPGPELVKPGASVKMSCKASGYTFTSTVIHWVRQKPGQGLEWIGYMNPYNDGIKYNEKFIGKAILTSDKSSSTAYMQLSSLTSEDSAVYYCTREGLFYVFDYWGQGTSVTVSS
VL: QIVLTQSPAIMSASPGEKVTMTCSATSSLSYMHWYQQKSGTSPKRWIYDTSKLASGVPVRFSGSGSGTSYSLTISSMEAEDAATYFCQQWRSDLPTFGAGTKLELKR
B2: Mutation 1-51 (antibody, V domains shown)
VH: EVQLQQPGPELVKPGASVKMSCKASGYTFTSTVIHWVRQKPGQGLEWIGYMNPYNDGLKYNEKFIGKAILTSDKSSSTAYMQLSSLTSEDSAVYYCTREGLFYVMDYWGQGTSVTVSS
VL: QIVLTQSPAIMSASPGEKVTMTCSATSSISYMHWYQQKSGTSPKRWIYDSSKLASGVPVRFSGSGSGTSYSLTISSMEAEDAATYFCQWWRSDLPTFGAGTKLELKR
B3: WT 1-5 (antibody, V domains shown)
VH: EVQLQQPGPELVKPGASVKMSCKASGYTVTSYVIHWVRQKPGQGLEWIGYMNAYNDGLKYNDKFIGKAILTSDKSSSTAYMQLSSLTSEDSAVYYCTKEGLFYVFDYWGQGTSVTVSS
VL: QIVLTQSPAIMSASPGEKVTMTCSGTSSVSYMHWYQQKSGTSPKRWIYDSSKLASPVPVRFSGSGSGTSYSLTISSMEAEDAATYFCQWWRSVLPTFGAGTKLELKR
B4: Mutation 1-44 (antibody, V domains shown)
VH: EVQLQQPGPELVKPGASVKMSCKASGYTFTSYVIHWVRQKPGQGLEWIGYMNPYNDGLKYNEKFIGKAILTSDKSSSTAYMQLSSLTSEDSAVYYCTREGLFYVFDYWGQGTSVTVSS
VL: QIVLTQSPAIMSASPGEKVTMTCSATSSVSYMHWYQQKSGTSPKRWIYDSSKLASGVPVRFSGSGSGTSYSLTISSMEAEDAATYFCQYWRSDLPTFGAGTKLELKR
B5: WT 1-19 (antibody, V domains shown)
VH: EVQLQQPGPELVKPGASVKMSCKASGYTVTSYVIHWVRQKPGQGLEWIGYMNAYNDGIKYNDKFIGKAILTSDKSSSTAYMQLSSLTSEDSAVYYCTKEGLFYVMDYWGQGTSVTVSS
VL: QIVLTQSPAIMSASPGEKVTMTCSGTSSVSYMHWYQQKSGTSPKRWIYDSSKLASPVPVRFSGSGSGTSYSLTISSMEAEDAATYFCQQWRSVLPTFGAGTKLELKR
B6: Mutation 1-3 (antibody, V domains shown)
VH: EVQLQQPGPELVKPGASVKMSCKASGYTFTSTVIHWVRQKPGQGLEWIGYMNPYNDGIKYNEKFIGKAILTSDKSSSTAYMQLSSLTSEDSAVYYCTREGLFYVFDYWGQGTSVTVSS
VL: QIVLTQSPAIMSASPGEKVTMTCSATSSISYMHWYQQKSGTSPKRWIYDSSKLASGVPVRFSGSGSGTSYSLTISSMEAEDAATYFCQYWRSDLPTFGAGTKLELKR
B7: Mutation 1-50 (antibody, V domains shown)
VH: EVQLQQPGPELVKPGASVKMSCKASGYTFTSYVIHWVRQKPGQGLEWIGYMNPYNDGLKYNEKFIGKAILTSDKSSSTAYMQLSSLTSEDSAVYYCTKEGLFYVFDYWGQGTSVTVSS
VL: QIVLTQSPAIMSASPGEKVTMTCSATSSISYMHWYQQKSGTSPKRWIYDTSKLASGVPVRFSGSGSGTSYSLTISSMEAEDAATYFCQYWRSDLPTFGAGTKLELKR
B8: Mutation 1-46 (antibody, V domains shown)
VH: EVQLQQPGPELVKPGASVKMSCKASGYTFTSSVIHWVRQKPGQGLEWIGYMNPYNDGLKYNEKFIGKAILTSDKSSSTAYMQLSSLTSEDSAVYYCTREGLFYVMDYWGQGTSVTVSS
VL: QIVLTQSPAIMSASPGEKVTMTCSATSSVSYMHWYQQKSGTSPKRWIYDTSKLASGVPVRFSGSGSGTSYSLTISSMEAEDAATYFCQQWRSDLPTFGAGTKLELKR
B9: WT 1-14 (antibody, V domains shown)
VH: EVQLQQPGPELVKPGASVKMSCKASGYTVTSSVIHWVRQKPGQGLEWIGYMNAYNDGLKYNDKFIGKAILTSDKSSSTAYMQLSSLTSEDSAVYYCTREGLFYVFDYWGQGTSVTVSS
VL: QIVLTQSPAIMSASPGEKVTMTCSGTSSLSYMHWYQQKSGTSPKRWIYDSSKLASPVPVRFSGSGSGTSYSLTISSMEAEDAATYFCQWWRSVLPTFGAGTKLELKR
B10: Mutation 1-48 (antibody, V domains shown)
VH: EVQLQQPGPELVKPGASVKMSCKASGYTFTSTVIHWVRQKPGQGLEWIGYMNPYNDGLKYNEKFIGKAILTSDKSSSTAYMQLSSLTSEDSAVYYCTKEGLFYVMDYWGQGTSVTVSS
VL: QIVLTQSPAIMSASPGEKVTMTCSATSSLSYMHWYQQKSGTSPKRWIYDSSKLASGVPVRFSGSGSGTSYSLTISSMEAEDAATYFCQWWRSDLPTFGAGTKLELKR
B11: WT 1-11 (antibody, V domains shown)
VH: EVQLQQPGPELVKPGASVKMSCKASGYTVTSTVIHWVRQKPGQGLEWIGYMNAYNDGIKYNDKFIGKAILTSDKSSSTAYMQLSSLTSEDSAVYYCTREGLFYVMDYWGQGTSVTVSS
VL: QIVLTQSPAIMSASPGEKVTMTCSGTSSISYMHWYQQKSGTSPKRWIYDTSKLASPVPVRFSGSGSGTSYSLTISSMEAEDAATYFCQYWRSVLPTFGAGTKLELKR
B12: Mutation 1-53 (antibody, V domains shown)
VH: EVQLQQPGPELVKPGASVKMSCKASGYTFTSYVIHWVRQKPGQGLEWIGYMNPYNDGIKYNEKFIGKAILTSDKSSSTAYMQLSSLTSEDSAVYYCTREGLFYVMDYWGQGTSVTVSS
VL: QIVLTQSPAIMSASPGEKVTMTCSATSSVSYMHWYQQKSGTSPKRWIYDTSKLASGVPVRFSGSGSGTSYSLTISSMEAEDAATYFCQYWRSDLPTFGAGTKLELKR
B13: Mutation 1-47 (antibody, V domains shown)
VH: EVQLQQPGPELVKPGASVKMSCKASGYTFTSYVIHWVRQKPGQGLEWIGYMNPYNDGIKYNEKFIGKAILTSDKSSSTAYMQLSSLTSEDSAVYYCTREGLFYVFDYWGQGTSVTVSS
VL: QIVLTQSPAIMSASPGEKVTMTCSATSSISYMHWYQQKSGTSPKRWIYDSSKLASGVPVRFSGSGSGTSYSLTISSMEAEDAATYFCQYWRSDLPTFGAGTKLELKR
B14: Mutation 1-43 (antibody, V domains shown)
VH: EVQLQQPGPELVKPGASVKMSCKASGYTFTSSVIHWVRQKPGQGLEWIGYMNPYNDGIKYNEKFIGKAILTSDKSSSTAYMQLSSLTSEDSAVYYCTKEGLFYVMDYWGQGTSVTVSS
VL: QIVLTQSPAIMSASPGEKVTMTCSATSSLSYMHWYQQKSGTSPKRWIYDTSKLASGVPVRFSGSGSGTSYSLTISSMEAEDAATYFCQYWRSDLPTFGAGTKLELKR
B15: Mutation 1-2 (antibody, V domains shown)
VH: EVQLQQPGPELVKPGASVKMSCKASGYTFTSYVIHWVRQKPGQGLEWIGYMNPYNDGLKYNEKFIGKAILTSDKSSSTAYMQLSSLTSEDSAVYYCTREGLFYVMDYWGQGTSVTVSS
VL: QIVLTQSPAIMSASPGEKVTMTCSATSSVSYMHWYQQKSGTSPKRWIYDTSKLASGVPVRFSGSGSGTSYSLTISSMEAEDAATYFCQQWRSDLPTFGAGTKLELKR
B16: Mutation 1-1 (antibody, V domains shown)
VH: EVQLQQPGPELVKPGASVKMSCKASGYTFTSSVIHWVRQKPGQGLEWIGYMNPYNDGIKYNEKFIGKAILTSDKSSSTAYMQLSSLTSEDSAVYYCTKEGLFYVFDYWGQGTSVTVSS
VL: QIVLTQSPAIMSASPGEKVTMTCSATSSLSYMHWYQQKSGTSPKRWIYDSSKLASGVPVRFSGSGSGTSYSLTISSMEAEDAATYFCQWWRSDLPTFGAGTKLELKR
B17: Mutation 1-45 (antibody, V domains shown)
VH: EVQLQQPGPELVKPGASVKMSCKASGYTFTSTVIHWVRQKPGQGLEWIGYMNPYNDGIKYNEKFIGKAILTSDKSSSTAYMQLSSLTSEDSAVYYCTKEGLFYVFDYWGQGTSVTVSS
VL: QIVLTQSPAIMSASPGEKVTMTCSATSSLSYMHWYQQKSGTSPKRWIYDSSKLASGVPVRFSGSGSGTSYSLTISSMEAEDAATYFCQWWRSDLPTFGAGTKLELKR
B18: Mutation 1-52 (antibody, V domains shown)
VH: EVQLQQPGPELVKPGASVKMSCKASGYTFTSSVIHWVRQKPGQGLEWIGYMNPYNDGLKYNEKFIGKAILTSDKSSSTAYMQLSSLTSEDSAVYYCTKEGLFYVFDYWGQGTSVTVSS
VL: QIVLTQSPAIMSASPGEKVTMTCSATSSLSYMHWYQQKSGTSPKRWIYDSSKLASGVPVRFSGSGSGTSYSLTISSMEAEDAATYFCQQWRSDLPTFGAGTKLELKR
B19: Mutation 1-49 (antibody, V domains shown)
VH: EVQLQQPGPELVKPGASVKMSCKASGYTFTSSVIHWVRQKPGQGLEWIGYMNPYNDGIKYNEKFIGKAILTSDKSSSTAYMQLSSLTSEDSAVYYCTREGLFYVFDYWGQGTSVTVSS
VL: QIVLTQSPAIMSASPGEKVTMTCSATSSVSYMHWYQQKSGTSPKRWIYDTSKLASGVPVRFSGSGSGTSYSLTISSMEAEDAATYFCQQWRSDLPTFGAGTKLELKR

The target of the assay is DN-IV quality control recombinant protein (produced by the company) (dengue virus). Kind of assay: BLI, antibody on AMC sensor.
Usually Kd stands for the free concentration of one partner at which half of the binding sites on the other are occupied at equilibrium, for simple one-to-one binding. As a reminder, the koff is a measure of how fast the partners let go of each other. Usually kon stands for the second-order rate constant of association. Regarding B1, the Kd came to 0.532 nM, the koff turned out to be 0.000209 s⁻¹ and the kon came out at 393000 M⁻¹ s⁻¹.

Consider B2, for which the equilibrium dissociation constant (Kd) stood at 0.5 nM, the koff is 0.000201 s⁻¹ and the kon worked out at 402000 M⁻¹ s⁻¹.

Take B3: the Kd is 57.8 nM, the koff was determined as 0.000264 s⁻¹ and the kon came out at 4570 M⁻¹ s⁻¹.

As for B4, the Kd worked out at 2.63 nM, the koff was 0.00011 s⁻¹ and the kon came to 41800 M⁻¹ s⁻¹.

For B5, the dissociation constant Kd worked out at 35.4 nM, the koff is 0.000162 s⁻¹ and the kon was determined as 4570 M⁻¹ s⁻¹.

As for B6, the equilibrium dissociation constant (Kd) came out at 2.9 nM, the koff amounted to 0.000119 s⁻¹ and the kon was 41100 M⁻¹ s⁻¹.

For the molecule B7, the Kd is 3.79 nM, the koff worked out at 0.000167 s⁻¹ and the on-rate (kon) is 44100 M⁻¹ s⁻¹.

Consider B8, for which the Kd is 0.569 nM, the koff was found to be 0.000222 s⁻¹ and the kon worked out at 390000 M⁻¹ s⁻¹.

With B9, the Kd worked out at 45.6 nM, the koff is 0.000188 s⁻¹ and the association rate constant (kon) turned out to be 4120 M⁻¹ s⁻¹.

As for B10, the Kd was 0.665 nM, the koff worked out at 0.000248 s⁻¹ and the kon amounted to 373000 M⁻¹ s⁻¹.

On to B11, for which the Kd amounted to 57.1 nM, the koff is 0.000244 s⁻¹ and the kon worked out at 4270 M⁻¹ s⁻¹.

For the molecule B12, the Kd was 2.71 nM, the koff came out at 0.000115 s⁻¹ and the kon came out at 42500 M⁻¹ s⁻¹.

For B13, the Kd was 0.57 nM, the koff worked out at 0.000211 s⁻¹ and the kon is 370000 M⁻¹ s⁻¹.

On to B14, for which the Kd was 0.624 nM, the koff came out at 0.000256 s⁻¹ and the kon is 410000 M⁻¹ s⁻¹.

For the molecule B15, the Kd came to 2.79 nM, the koff turned out to be 0.000116 s⁻¹ and the kon was determined as 41600 M⁻¹ s⁻¹.

For the molecule B16, the Kd is 0.445 nM, the koff is 0.000181 s⁻¹ and the kon came to 407000 M⁻¹ s⁻¹.

For B17, the Kd was 4.22 nM, the koff was found to be 0.000174 s⁻¹ and the association rate constant (kon) worked out at 41200 M⁻¹ s⁻¹.

Consider B18, for which the Kd was 3.02 nM, the koff worked out at 0.000124 s⁻¹ and the kon stood at 41000 M⁻¹ s⁻¹.

B19: the Kd was determined as 0.765 nM, the koff worked out at 0.000299 s⁻¹ and the kon stood at 391000 M⁻¹ s⁻¹.

These data come from patent publication US20210324054A1.
